# Source: patent publication US12576170B2, “Rk polypeptide radiopharmaceutical targeting HER2 and preparation method thereof” (BEIJING GILUNTIDE PHARMACEUTICAL CO., LTD., priority 2019, dated 2026)
# Tests used:
# [1] = water solubility; assay type: physicochemical; details: compared with refvffly polypeptide
# [2] = tested on: SKBR3 of high HER2 expression; assay: cell binding assay, SKBR3 cells; parameters: species or system Human
# Method: (§1) The rk polypeptide radiopharmaceuticals were sampled for radioactive HPLC analysis. The HPLC was conducted in an Agilent 1260 HPLC system equipped with a YMC-Pack ODS-A analytic column (250× 4.6 mm, I.D. S-5 μm, 12 nm), and a 20-min gradient elution was performed at a flow rate of 1 mL/min, wherein the mobile A phase was deionized water (containing 0.05% TFA) and the mobile B phase was acetonitrile (containing 0.05% TFA). The elution gradients were 90% A and 10% B at beginning, and 30% A and 70% B at 20 min. The labeling rate of ^99mTc-HYNIC-PEG4-(Aoc-rk)2 was >95%, and the radiochemical purity was >98% as measured by HPLC with a Sep-Pak C18 column. The results of a binding affinity assay of HYNIC-PEG4-(Aoc-rk)2 to HER2 are shown in FIG. 3: Human breast cancer cells SKBR3 of high HER2 expression and MCF7 of no HER2 expression were used as experimental samples, and ^99mTc-HYNIC-PEG4-(Aoc-rk)2 was used as a radioactive ligand specifically binding to HER2 receptor. In this cell binding assay, the binding capacities of ^99mTc-HYNIC-PEG4-(Aoc-rk)2 to SKBR3 and MCF7 were measured, with a blocking group treated with excessive HYNIC-PEG4-(Aoc-rk)2 to verify the binding specificity of ^99mTc-HYNIC-PEG4-(Aoc-rk)2 to SKBR3.
# [3] = tested on: MCF7 of no HER2 expression; assay: cell binding assay, MCF7 cells; parameters: species or system Human
# Method: as §1
# [4] = tested on: SKBR3 breast tumor model; parameters: species or system NOD SCID mice; details: mouse, in vivo
# Method: (§2) Thus the polypeptide is suitable for delayed imaging and more beneficial for tumor diagnosis.
# SPECT/CT imaging: Different tumor models with similar tumor sizes were selected, administered with 1 mCi ^99mTc-HYNIC-PEG4-(Aoc-rk)2 through tail vein, and subjected to SPECT/CT imaging 0.5 h later. The SPECT images were reconstructed after imaging, fused with the CT image to give 3D images of the mouse, and the tumor lesion was extracted by In VivoScope software for quantitative analysis.
# Preparation of ^99mTc-HYNIC-PEG4-(PEG4-rk) 2:500 μL of a mixture containing 5.0 mg of trisodium triphenylphosphine-3,3′, 3″-trisulfonate (TPPTS), 6.5 mg of tricine, 38.5 mg of disodium succinate hexahydrate, 12.7 mg of succinic acid and 50 μg of HYNIC-PEG4-(PEG4-rk)2 was prepared in a 10 mL vial and lyophilized. 1.0-1.5 mL of Na^99mTcO4 solution (10-35 mCi) was added to the lyophilized powder. The vial was incubated in a water bath at 100° C. for 20-25 min, and cooled at room temperature for 10 min after the reaction is completed to give the rk polypeptide radiopharmaceutical. The rk polypeptide radiopharmaceuticals were sampled for radioactive HPLC analysis. The HPLC was conducted in an Agilent 1260 HPLC system equipped with a YMC-Pack ODS-A analytic column (250× 4.6 mm, I.D. S-5 μm, 12 nm), and a 20-min gradient elution was performed at a flow rate of 1 mL/min, wherein the mobile A phase was deionized water (containing 0.05% TFA) and the mobile B phase was acetonitrile (containing 0.05% TFA). The elution gradients were 90% A and 10% B at beginning, and 30% A and 70% B at 20 min. The labeling rate of ^99mTc-HYNIC-PEG4-(PEG4-rk)2 was >95%, and the radiochemical purity was >98% as measured by a Sep-Pak C18 column.
# [5] = parameters: species or system NOD SCID mice; details: mouse, in vivo, iv
# Method: The biodistribution of ^99mTc-HYNIC-PEG4-(Aoc-rk)2 in tumor-bearing mice: NOD SCID mice bearing SKBR3 tumor were randomized with 4 mice in each group. Each group of mice were injected with different ^99mTc-labeled polypeptides via tail vein, and sacrificed at 30 and 60 min after injection. Samples of blood and major organs were collected, weighed and measured for radiological counting, and the decay-corrected percent injection dose rate per gram of tissue (% ID/g) was calculated. The results of the experiment are shown in FIG. 8, in which the uptake in tumor at 30 min was 3.7% ID/g, and the uptake was low in blood and organs other than kidney.
# [6] = tested on: breast cancer; assay type: in vivo, human patients
# Method: SPECT/CT imaging of ^99mTc-HYNIC-PEG4-(Aoc-rk)2 in breast cancer patients: with approval by the Ethics Review Committee of the Peking Union Medical College Hospital and informed consent, 20 female patients with suspected breast cancer by molybdenum target X-ray or ultrasonography were recruited and subjected to SPECT/CT imaging and PET/CT imaging 1 week before surgery. The patients were administered intravenously with 11.1 MBq (0.3 mCi)/kg body weight of ^99mTc-HYNIC-PEG4-(Aoc-rk)2 30 min before SPECT/CT scan, and 5.6 MBq (0.15 mCi)/kg body weight of ^18F-FDG 60 min before PET/CT scan.
# [7] = tested on: HER2-positive model (SKBR3 breast tumor model); details: in vivo
# Text: This is especially critical for breast cancer tumors in situ in the thorax, since the contrast agent ^99mTc-HPArk2 of the present invention is more advantageous in imaging breast cancer lesions in situ.
# The specific difference of in vivo pharmacokinetics between the present invention and the radiopharmaceutical disclosed in Patent No. CN 109045313 A is shown in FIG. 11. FIG. 11 illustrates the uptake in tumor and comparison of data corresponding to the images in FIG. 10. […] FIG. 11 panel B illustrates the results of calculations from FIG. 11 panel A. The uptakes in tumor and the organs were compared and analyzed. […] As is also seen in FIG. 10, a smaller tumor was visualized by ^99mTc-HPArk2 imaging, and the imaging effect is guaranteed. […] Therefore, the contrast ratio for imaging is better, and particularly, the low uptake in heart and liver in the chest cavity may facilitate clear imaging of the in-situ tumor of the breast cancer.
# [8] = biological target: T1, HER2 (Homo sapiens, UniProt P04626); assay: HER2 binding specificity detection at protein and cell level; details: protein and cellular levels, FIG. 12
# [9] = tested on: HER2-negative EGFR-positive MDA-MB-468 breast cancer model; assay: imaging in HER2-negative/EGFR-positive tumor model; assay type: in vivo; details: FIG. 13
# Text: Since EGFR and HER2 are members of the same family and have similar structures, they are difficult to be distinguished by targeting molecules. As such, false positives and false negatives are inevitable when detecting tumors.
# [10] = biological target: T1, HER2; assay: correlation between uptake in tumor and HER2 expression level in tumor models; assay type: in vivo, mouse; parameters: tumor cells with different HER2 expression levels, including human breast cancer cell lines SKBR3, MCF7 and MDA-MB-468; endogenous in cells; host or cells: SKBR3, MCF7, MDA-MB-468, HT29, BxPC3 human tumour cells as xenografts in mice; details: SKBR3 (high), HT29 (moderate), BxPC3 (low HER2) tumor models
# Text: as §2
# Correlation between uptake of ^99mTc-HYNIC-PEG4-(Aoc-rk)2 in tumor and HER2 expression level: tumor cells with different HER2 expression levels, including human breast cancer cell lines SKBR3, MCF7 and MDA-MB-468, human colorectal cancer cell line HT29 and human pancreatic cancer cell line BxPC3, were selected and subjected to flow cytometry for quantitative analysis of HER2 expression in cells. Then the tumor models of the cells were subjected to SPECT/CT imaging, and the uptake in tumor was quantitatively analyzed. Finally, the correlation between HER2 expression and the uptake in tumor was investigated.
# Flow cytometry: The cells were digested using 0.25% EDTA/pancreatin, blocked for 15 min, centrifuged, washed with PBS, and divided into a treatment group and a control group. […] The two groups were incubated for 0.5 h in the dark at 4° C., washed for 3 times using cold PBS, and analyzed on a flow cytometer. The mean fluorescence intensity (MFI) of the bound antibody on each cell was calculated through a standard flow cytometry curve. […]
# Analysis of correlation between HER2 expression level and uptake in tumor: the linear relationship between HER2 expression level (MFI) and uptake in tumor (% ID/g) was plotted using prism 7.0 software, and the R^2 value was calculated.
compound,measurement,setting,value
"CC(C)C[C@@H](NC(=O)[C@@H](CCCNC(=N)N)NC(=O)[C@@H](CC(C)C)NC(=O)[C@@H](CCC(=O)O)NC(=O)[C@@H](Cc1c[nH]c2ccccc12)NC(=O)[C@@H](CC(N)=O)NC(=O)[C@H](N)CCCNC(=N)N)C(=O)N[C@H](CCCCN)C(=O)O [rk polypeptide, Arg-Asn-Trp-Glu-Leu-Arg-Leu-Lys]",water solubility,[1],superior to that of refvffly polypeptide
"CC(C)C[C@@H](NC(=O)[C@@H](CCCNC(=N)N)NC(=O)[C@@H](CC(C)C)NC(=O)[C@@H](CCC(=O)O)NC(=O)[C@@H](Cc1c[nH]c2ccccc12)NC(=O)[C@@H](CC(N)=O)NC(=O)[C@@H](CCCNC(=N)N)NC(=O)CCCCCCCNC(=O)CC[C@H](NC(=O)CCOCCOCCOCCOCCNC(=O)c1ccc(NN)nc1)C(=O)NCCCCCCCC(=O)N[C@H](CCCNC(=N)N)C(=O)N[C@H](CC(N)=O)C(=O)N[C@H](Cc1c[nH]c2ccccc12)C(=O)N[C@H](CCC(=O)O)C(=O)N[C@H](CC(C)C)C(=O)N[C@H](CCCNC(=N)N)C(=O)N[C@H](CC(C)C)C(=O)N[C@H](CCCCN)C(=O)O)C(=O)N[C@H](CCCCN)C(=O)O [^99mTc-HYNIC-PEG4-(Aoc-rk)2, metal not drawn]","binding rate per 10^5 cells, blocking group",[2]; SKBR3 blocking group treated with excessive HYNIC-PEG4-(Aoc-rk)2,1.24 % per 10^5 cells
same,binding rate per 10^5 cells,[2]; SKBR3 cells,4.49 % per 10^5 cells
same,binding rate per 10^5 cells,[3],1.14 % per 10^5 cells
same,tumor visualization in delayed imaging,[4],still clearly visualized
same,uptake in tumor (SPECT/CT),[4],clearly visible and significantly higher than that of the monomer
same,"uptake in tumor, Herceptin blocking group",[4],substantially unchanged
same,"uptake in tumor, cold peptide blocking group",[4],significantly reduced uptake in tumor
same,whole-body background (SPECT/CT),[4],clean whole-body background
same,tissue uptake at 0.5 h,[5],3.7 %ID/g
same,patients with lymph node metastasis in whom metastasis was shown,[6]; 5 of 6 patients,83%
same,patients with pathologically diagnosed breast cancer whose tumor was accurately imaged,"[6]; 14 of 15 patients, 11.1 MBq/kg i.v., 30 min before scan",93%
same,adverse effects during the clinical trial,"[6]; human, in vivo",No adverse effect related to the radiopharmaceutical was found
same,hepatic uptake (FIG. 10),[7],lowest
same,"ratios of tumor to normal tissues such as blood, heart, liver, spleen, intestine and stomach",[7],relatively higher
same,"uptake in blood, heart, liver, spleen, intestine, stomach, bone and other tissues",[7],relatively lower
same,"uptake in tumor (biodistribution, FIG. 11)",[7],relatively higher uptake in tumor than those of ^99mTc-HP4-ref and ^99mTc-HP24-ref
same,"uptake in tumor (image quantification, FIG. 10)",[7],"higher uptake in tumor than that of ^99mTc-HP24-ref, with no significant difference from ^99mTc-HP4-ref"
same,uptake ratio of tumor to liver,[7],highest
same,HER2 specificity,[8],good specificity at both protein and cellular levels
same,imaging result in HER2-negative EGFR-positive model,[9],negative result
same,relation of uptake to HER2 expression level (SPECT/CT),[10],linearly related to the expression level of HER2
